Measurements as given in article PMC12399007.

Key:
[1] = biological target: F-actin saturated with Tpm2.1 (rabbit | human) (UniProt P68135); assay: co-sedimentation; high-speed centrifugation (HSC); 3.0 µM F-actin, alone or pre-incubated 15 min with 2.0 µM Tpm2 isoform, incubated with fascin 0-1.1 µM for 1 h at RT; 5 mM Tris-HCl, 100 mM NaCl, 2 mM MgCl2, 1 mM DTT, pH 7.5; Hill fit, apparent Kapp
[2] = biological target: F-actin (rabbit skeletal muscle actin, polymerized) (rabbit) (UniProt P68135); assay: as above
[3] = biological target: F-actin (rabbit skeletal muscle actin, polymerized) (rabbit) (UniProt P68135); assay: co-sedimentation; high-speed centrifugation (HSC, 1 h, 40,000 rpm, 20 °C); 3.0 µM F-actin pre-incubated with 0.3 µM fascin for 20 min, titrated with Tpm2 isoforms 0-3.0 µM; 5 mM Tris, 100 mM NaCl, 2 mM MgCl2, 1 mM DTT, pH 7.5; Hill fit, apparent Kapp; fascin band in the pellets also quantified

Ka [1] [M⁻¹]	Ka [2] [M⁻¹]	percent reduction of fascin bound to F-actin [3] [%]	Substance
8e+06	1.15e+07		recombinant mouse fascin-1 with GPLGS N-terminal extension (GST tag cleaved) (natural protein)
		30	Tpm2.4, recombinant N-terminally acetylated human tropomyosin isoform encoded by TPM2 (natural protein)
